{
  "source": "paper PMC12717039",
  "about": "“Novel mutations in the RECQL4 gene affect its helicase functions, interactions with the BLM helicase and chemotherapeutics-induced cell death”",
  "key": {"[1]": {"target": "T1, RECQL4 427-1116 WT (Homo sapiens, UniProt O94761 427-1116)", "T1 sequence": "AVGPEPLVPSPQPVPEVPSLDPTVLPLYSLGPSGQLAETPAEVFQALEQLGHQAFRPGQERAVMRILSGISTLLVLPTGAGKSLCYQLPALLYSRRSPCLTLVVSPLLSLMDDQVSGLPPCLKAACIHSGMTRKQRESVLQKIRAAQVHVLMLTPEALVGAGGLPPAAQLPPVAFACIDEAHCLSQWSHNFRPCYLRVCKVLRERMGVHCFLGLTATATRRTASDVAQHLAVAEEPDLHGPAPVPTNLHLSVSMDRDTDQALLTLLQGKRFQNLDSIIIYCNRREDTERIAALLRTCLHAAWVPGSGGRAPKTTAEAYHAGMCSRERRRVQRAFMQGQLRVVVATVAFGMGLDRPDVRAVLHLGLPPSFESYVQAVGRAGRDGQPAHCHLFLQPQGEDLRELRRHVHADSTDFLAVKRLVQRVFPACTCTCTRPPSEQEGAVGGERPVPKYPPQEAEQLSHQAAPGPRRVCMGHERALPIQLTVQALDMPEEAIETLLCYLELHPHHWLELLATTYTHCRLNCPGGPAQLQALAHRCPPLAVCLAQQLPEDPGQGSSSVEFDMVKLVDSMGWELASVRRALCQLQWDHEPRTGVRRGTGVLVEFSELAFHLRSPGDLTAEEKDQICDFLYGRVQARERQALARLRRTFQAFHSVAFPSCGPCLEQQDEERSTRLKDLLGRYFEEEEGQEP", "test": "MST; 5 mM Mg2+; no ATP mentioned; Kd only in figure; Buffer D: 10 mM HEPES pH 7.5, 50 mM NaCl, 5 mM MgCl2, 2 mM DTT (EMSA, 100 nM Cy3-DNA, 6% native PAGE); MST with 10 nM Cy5-DNA, buffer not restated; temperature", "conditions": "protein: recombinant; tags: GST tag removed by TEV; label: 5' Cy5 on strand 1; 3' overhang 15 nt on strand 1, 15 bp duplex"}, "[2]": {"target": "T2, RECQL4 427-1116 P532S (Homo sapiens, UniProt O94761 427-1116, P532S)", "T2 sequence": "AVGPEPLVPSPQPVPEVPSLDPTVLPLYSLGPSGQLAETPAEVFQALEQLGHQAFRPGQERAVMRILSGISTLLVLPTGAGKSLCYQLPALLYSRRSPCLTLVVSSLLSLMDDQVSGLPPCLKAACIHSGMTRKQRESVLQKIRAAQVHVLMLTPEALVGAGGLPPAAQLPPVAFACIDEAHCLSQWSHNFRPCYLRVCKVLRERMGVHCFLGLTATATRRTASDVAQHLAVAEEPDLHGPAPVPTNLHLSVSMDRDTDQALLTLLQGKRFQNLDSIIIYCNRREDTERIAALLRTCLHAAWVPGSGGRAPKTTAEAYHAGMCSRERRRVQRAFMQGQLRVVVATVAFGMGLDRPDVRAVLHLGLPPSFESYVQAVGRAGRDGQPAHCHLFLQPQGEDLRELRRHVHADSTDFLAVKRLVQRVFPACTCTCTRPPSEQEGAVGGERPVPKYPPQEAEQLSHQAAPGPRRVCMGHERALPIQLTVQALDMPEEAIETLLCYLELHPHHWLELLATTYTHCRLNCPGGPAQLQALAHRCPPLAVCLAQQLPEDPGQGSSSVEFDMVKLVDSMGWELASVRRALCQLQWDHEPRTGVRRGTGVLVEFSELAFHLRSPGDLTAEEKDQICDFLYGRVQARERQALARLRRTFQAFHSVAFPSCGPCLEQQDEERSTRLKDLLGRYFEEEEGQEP", "test": "MST; 5 mM Mg2+; no ATP mentioned; Kd only in figure; Buffer D: 10 mM HEPES pH 7.5, 50 mM NaCl, 5 mM MgCl2, 2 mM DTT (EMSA, 100 nM Cy3-DNA, 6% native PAGE); MST with 10 nM Cy5-DNA, buffer not restated; temperature", "conditions": "protein: recombinant; tags: GST tag removed by TEV; label: 5' Cy5 on strand 1; 3' overhang 15 nt on strand 1, 15 bp duplex"}},
  "data": [
    {"binder": "OH-Cy5/CQ dsDNA with 3' ss overhang (MST) (dsDNA) DNA 1: CCATTCCACCCTCTATTTTTTTTTTTTTTT DNA 2: TAGAGGGTGGAATGG", "values": [
      {"measurement": "binding result", "setting": "[1]", "result": "binds"},
      {"measurement": "binding result", "setting": "[2]", "result": "binds"}
    ]}
  ]
}
